# In patent US10684274 (GEORGE WASHINGTON UNIVERSITY A CONGRESSIONALLY CHARTERED …, dated 2020):
# T1: HA-tagged calnexin with truncation of the C-terminal cytoplasmic domain (CNXΔ504-586) (human, UniProt P27824 21-592)
# T1 sequence: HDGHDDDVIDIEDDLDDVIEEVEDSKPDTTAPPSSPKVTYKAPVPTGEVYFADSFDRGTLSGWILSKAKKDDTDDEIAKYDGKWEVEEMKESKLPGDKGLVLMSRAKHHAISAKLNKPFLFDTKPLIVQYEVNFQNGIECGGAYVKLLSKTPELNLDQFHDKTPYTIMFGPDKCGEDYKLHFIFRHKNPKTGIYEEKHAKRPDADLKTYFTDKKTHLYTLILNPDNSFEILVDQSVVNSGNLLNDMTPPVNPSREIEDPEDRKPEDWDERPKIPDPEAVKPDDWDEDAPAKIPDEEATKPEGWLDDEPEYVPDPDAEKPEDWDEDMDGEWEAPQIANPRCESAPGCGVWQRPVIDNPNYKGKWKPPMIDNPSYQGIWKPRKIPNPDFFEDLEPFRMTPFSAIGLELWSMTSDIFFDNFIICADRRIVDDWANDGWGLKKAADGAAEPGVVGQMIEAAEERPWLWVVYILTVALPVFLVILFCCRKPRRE
# T2: HA-tagged calnexin with deletion of the lumenal repeat segment (CNXΔ276-409) (human, UniProt P27824 21-592)
# T2 construct: Made by restriction digest and re-ligation, so junction residues are not known
# T2 sequence: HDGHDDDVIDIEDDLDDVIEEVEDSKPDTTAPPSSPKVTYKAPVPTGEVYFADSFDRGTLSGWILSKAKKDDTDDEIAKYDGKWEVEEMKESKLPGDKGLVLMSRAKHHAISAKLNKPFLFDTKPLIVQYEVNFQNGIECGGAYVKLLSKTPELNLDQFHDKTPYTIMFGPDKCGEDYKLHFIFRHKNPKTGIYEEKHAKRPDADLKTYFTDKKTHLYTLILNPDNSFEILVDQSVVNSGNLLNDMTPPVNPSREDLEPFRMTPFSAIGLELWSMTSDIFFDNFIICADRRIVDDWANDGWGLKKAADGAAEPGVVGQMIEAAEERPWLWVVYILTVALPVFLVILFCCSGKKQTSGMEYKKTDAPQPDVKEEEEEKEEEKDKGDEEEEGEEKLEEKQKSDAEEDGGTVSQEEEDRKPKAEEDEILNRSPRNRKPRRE
# T3: endogenous calnexin (HEK293T and other human cells) (human, UniProt P27824 21-592)
# T3 construct: Endogenous cellular protein, immunoprecipitated with a monoclonal anti-calnexin antibody or co-precipitated with HA-Nef; also called CNX
# T3 sequence: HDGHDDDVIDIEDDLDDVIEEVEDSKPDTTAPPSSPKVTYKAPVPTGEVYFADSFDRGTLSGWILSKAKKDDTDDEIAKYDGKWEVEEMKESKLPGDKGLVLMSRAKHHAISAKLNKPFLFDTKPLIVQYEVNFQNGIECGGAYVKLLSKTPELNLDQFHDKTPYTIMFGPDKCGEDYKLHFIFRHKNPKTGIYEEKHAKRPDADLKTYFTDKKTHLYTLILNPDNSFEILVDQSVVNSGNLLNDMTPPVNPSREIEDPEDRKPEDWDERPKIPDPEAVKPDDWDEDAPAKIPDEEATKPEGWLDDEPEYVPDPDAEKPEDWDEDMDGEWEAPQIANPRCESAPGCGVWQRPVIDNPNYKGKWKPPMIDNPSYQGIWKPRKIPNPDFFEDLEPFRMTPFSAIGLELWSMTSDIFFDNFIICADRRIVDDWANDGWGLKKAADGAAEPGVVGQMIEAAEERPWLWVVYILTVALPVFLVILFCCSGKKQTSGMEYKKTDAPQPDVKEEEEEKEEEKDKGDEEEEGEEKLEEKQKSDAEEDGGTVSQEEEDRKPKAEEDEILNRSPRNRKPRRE
# Experiments:
# [1] = molecular target: endogenous calnexin (HEK293T and other human cells) (human) (UniProt P27824); assay: co-immunoprecipitation with endogenous calnexin, HEK293T cells (FIG. 3A)
# [2] = molecular target: endogenous calnexin (HEK293T and other human cells) (human) (UniProt P27824); assay: co-immunoprecipitation from HEK293T cells transfected with HIV-1 molecular clones; IP of endogenous calnexin with anti-CNX antibody, western blot for Nef; relative to the Nef wt lane; no Nef band is visible in this lane
# [3] = molecular target: endogenous calnexin (HEK293T and other human cells) (human) (UniProt P27824); assay: co-immunoprecipitation with endogenous calnexin, HEK293T cells transfected with mutant HIV-1 NL4-3 clone, immunoblot for Nef
# [4] = molecular target: endogenous calnexin (HEK293T and other human cells) (human) (UniProt P27824); assay: co-immunoprecipitation from HEK293T cells transfected with HIV-1 molecular clones; IP of endogenous calnexin with anti-CNX antibody, western blot for Nef; reference lane
# [5] = molecular target: T1, HA-tagged calnexin with truncation of …; assay: co-immunoprecipitation with anti-HA beads from HEK293T lysates, immunoblot for Nef, densitometry
# [6] = molecular target: T2, HA-tagged calnexin with deletion of the …; assay: as above
# [7] = molecular target: T4, ABCA1-FLAG (ATP-binding cassette A1 with FLAG tag) (UniProt O95477 1-2261); assay: co-immunoprecipitation with ABCA1-FLAG (anti-FLAG beads), HEK293T cells, densitometry
# T4 construct: whole, on cells; Immunoprecipitated with anti-FLAG beads from lysates; not shown: FLAG tag
# [8] = molecular target: T3, endogenous calnexin (HEK293T and other …); assay: co-immunoprecipitation with endogenous calnexin (monoclonal anti-calnexin), HEK293T cells, immunoblot for Nef
# [9] = molecular target: T3, endogenous calnexin (HEK293T and other …); assay: co-immunoprecipitation from HEK293T cells transfected with pcDNA Nef plasmids; IP of endogenous calnexin with anti-CNX antibody, western blot for Nef; relative to the Nef wt lane
# [10] = molecular target: T3, endogenous calnexin (HEK293T and other …); assay: co-immunoprecipitation with endogenous calnexin, HEK293T cells, densitometry
# [11] = molecular target: T5, myristoylated NefSF2 (HIV-1, UniProt P03407 2-210, myristoylated (site not given)); assay: SPR, Biacore T-200, CNX-CT amine-coupled on CM5 chip, Nef as analyte, 25 C
# T5 construct: Analyte in SPR
# T4 sequence (O95477 whole entry): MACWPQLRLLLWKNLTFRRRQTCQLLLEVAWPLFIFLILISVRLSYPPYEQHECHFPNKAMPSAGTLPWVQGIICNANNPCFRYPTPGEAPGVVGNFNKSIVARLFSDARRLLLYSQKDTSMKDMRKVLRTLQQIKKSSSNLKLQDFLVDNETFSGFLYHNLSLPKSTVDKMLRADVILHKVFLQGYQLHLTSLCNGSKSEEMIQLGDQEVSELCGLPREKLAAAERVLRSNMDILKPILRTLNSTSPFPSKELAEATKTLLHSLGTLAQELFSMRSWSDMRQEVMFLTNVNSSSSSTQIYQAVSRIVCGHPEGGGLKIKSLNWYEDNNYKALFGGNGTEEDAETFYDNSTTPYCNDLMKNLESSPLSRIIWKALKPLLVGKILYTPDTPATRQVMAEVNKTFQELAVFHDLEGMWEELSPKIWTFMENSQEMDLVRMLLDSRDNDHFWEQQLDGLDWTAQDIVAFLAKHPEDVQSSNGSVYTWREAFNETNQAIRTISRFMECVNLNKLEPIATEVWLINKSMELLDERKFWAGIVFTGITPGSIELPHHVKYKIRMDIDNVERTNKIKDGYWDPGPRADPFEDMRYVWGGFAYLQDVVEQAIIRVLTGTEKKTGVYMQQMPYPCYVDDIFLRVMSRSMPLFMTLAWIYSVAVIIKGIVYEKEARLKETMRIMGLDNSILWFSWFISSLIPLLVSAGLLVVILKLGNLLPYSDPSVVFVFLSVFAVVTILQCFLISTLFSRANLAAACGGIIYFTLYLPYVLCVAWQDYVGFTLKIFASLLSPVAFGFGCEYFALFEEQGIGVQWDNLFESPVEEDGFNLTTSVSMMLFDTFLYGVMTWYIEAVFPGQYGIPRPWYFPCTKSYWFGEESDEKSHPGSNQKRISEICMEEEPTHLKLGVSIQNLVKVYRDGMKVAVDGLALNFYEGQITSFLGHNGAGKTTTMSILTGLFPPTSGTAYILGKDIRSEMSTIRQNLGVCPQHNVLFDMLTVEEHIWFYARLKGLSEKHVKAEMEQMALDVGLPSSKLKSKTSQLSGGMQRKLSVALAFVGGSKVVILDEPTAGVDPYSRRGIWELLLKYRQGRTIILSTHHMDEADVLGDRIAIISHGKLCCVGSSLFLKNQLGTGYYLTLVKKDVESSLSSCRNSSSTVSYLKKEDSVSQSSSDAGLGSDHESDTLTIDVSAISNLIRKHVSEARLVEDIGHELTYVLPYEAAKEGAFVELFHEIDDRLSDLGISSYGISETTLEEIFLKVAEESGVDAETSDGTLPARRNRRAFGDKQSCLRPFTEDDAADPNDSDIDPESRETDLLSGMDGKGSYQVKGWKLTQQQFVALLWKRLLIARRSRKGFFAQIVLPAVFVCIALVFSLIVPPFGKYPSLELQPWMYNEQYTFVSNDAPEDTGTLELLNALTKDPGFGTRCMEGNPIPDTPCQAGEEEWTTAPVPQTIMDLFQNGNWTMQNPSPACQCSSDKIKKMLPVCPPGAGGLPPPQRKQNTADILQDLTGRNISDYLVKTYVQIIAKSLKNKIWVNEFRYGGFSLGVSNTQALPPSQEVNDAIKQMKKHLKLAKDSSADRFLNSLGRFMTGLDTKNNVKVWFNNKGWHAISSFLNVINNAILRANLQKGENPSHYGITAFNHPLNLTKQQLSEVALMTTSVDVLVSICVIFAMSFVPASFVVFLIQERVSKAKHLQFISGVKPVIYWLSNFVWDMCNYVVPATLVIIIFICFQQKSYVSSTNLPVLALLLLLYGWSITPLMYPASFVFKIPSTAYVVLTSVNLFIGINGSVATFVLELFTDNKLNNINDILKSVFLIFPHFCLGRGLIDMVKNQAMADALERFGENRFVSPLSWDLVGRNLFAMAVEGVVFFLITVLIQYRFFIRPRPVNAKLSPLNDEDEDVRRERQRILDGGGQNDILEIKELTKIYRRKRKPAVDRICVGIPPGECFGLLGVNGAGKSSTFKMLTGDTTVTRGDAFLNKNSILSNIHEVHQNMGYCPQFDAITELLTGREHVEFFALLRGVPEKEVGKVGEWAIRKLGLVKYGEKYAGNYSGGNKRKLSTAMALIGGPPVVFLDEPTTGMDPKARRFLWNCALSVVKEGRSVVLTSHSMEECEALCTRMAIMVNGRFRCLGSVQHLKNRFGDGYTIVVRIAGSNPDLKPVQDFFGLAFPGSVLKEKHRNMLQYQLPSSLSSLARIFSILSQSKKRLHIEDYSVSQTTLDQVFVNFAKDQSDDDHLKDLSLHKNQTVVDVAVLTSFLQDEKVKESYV
molecule,measurement,setting,value
"HIV-1 NL4-3 Nef K4,7A mutant (expressed from mutant HIV-1 NL4-3 clone)",loss of interaction relative to Nef WT,[1],> 95%
same,relative amount of co-precipitated Nef (gel densitometry),[2],0.05
same,reduction of interaction relative to Nef WT,[3],95%
"HIV-1 NL4-3 Nef, wild type (expressed from HIV-1 NL4-3 molecular clone)",relative amount of co-precipitated Nef (gel densitometry),[4],1
"HIV-1 Nef, BRU isolate, wild type (NefBRU) (other, whole, on cells; also called Nef WT; WT Nef) GGKWSKSSVVGWPTVRERMRRAEPAADGVGAASRDLEKHGAITSSNTAATNAACAWLEAQEEEEVGFPVTPQVPLRPMTYKAAVDLSHFLKEKGGLEGLIHSQRRQDILDLWIYHTQGYFPDWQNYTPGPGVRYPLTFGWCYKLVPVEPDKVEEANKGENTSLLHPVSLHGMDDPEREVLEWRFDSRLAFHHVARELHPEYFKNC",reduction of binding relative to WT calnexin,[5],70%
same,reduction of binding relative to WT calnexin,[6],40%
"HIV-1 Nef BRU K4,7A double mutant (NefK4,7A, pcDNA plasmid) (other, whole, on cells; Expressed in HEK293T cells, co-immunoprecipitated from lysates) GGAWSASSVVGWPTVRERMRRAEPAADGVGAASRDLEKHGAITSSNTAATNAACAWLEAQEEEEVGFPVTPQVPLRPMTYKAAVDLSHFLKEKGGLEGLIHSQRRQDILDLWIYHTQGYFPDWQNYTPGPGVRYPLTFGWCYKLVPVEPDKVEEANKGENTSLLHPVSLHGMDDPEREVLEWRFDSRLAFHHVARELHPEYFKNC",reduction of interaction relative to wild-type Nef,[7],~30%
same,binding result,[8],no binding
same,relative amount of co-precipitated Nef (gel densitometry),[9],0.01
"HIV-1 Nef BRU K4A mutant (NefK4A) (other, whole, on cells; Expressed in HEK293T cells, co-immunoprecipitated from lysates) GGAWSKSSVVGWPTVRERMRRAEPAADGVGAASRDLEKHGAITSSNTAATNAACAWLEAQEEEEVGFPVTPQVPLRPMTYKAAVDLSHFLKEKGGLEGLIHSQRRQDILDLWIYHTQGYFPDWQNYTPGPGVRYPLTFGWCYKLVPVEPDKVEEANKGENTSLLHPVSLHGMDDPEREVLEWRFDSRLAFHHVARELHPEYFKNC",reduction of interaction relative to WT Nef,[10],50%
same,relative amount of co-precipitated Nef (gel densitometry),[9],0.5
"HIV-1 Nef BRU K7A mutant (NefK7A) (other, whole, on cells; Expressed in HEK293T cells, co-immunoprecipitated from lysates) GGKWSASSVVGWPTVRERMRRAEPAADGVGAASRDLEKHGAITSSNTAATNAACAWLEAQEEEEVGFPVTPQVPLRPMTYKAAVDLSHFLKEKGGLEGLIHSQRRQDILDLWIYHTQGYFPDWQNYTPGPGVRYPLTFGWCYKLVPVEPDKVEEANKGENTSLLHPVSLHGMDDPEREVLEWRFDSRLAFHHVARELHPEYFKNC",reduction of interaction relative to WT Nef,[10],90%
same,relative amount of co-precipitated Nef (gel densitometry),[9],0.1
"recombinant calnexin cytoplasmic tail (CNX-CT), N-terminal His-tag and SUMO domain, purified from E. coli (other, also called cytoplasmic tail of CNX; C-terminal (cytoplasmic) domain of CNX) HHHHHHHHCSGKKQTSGMEYKKTDAPQPDVKEEEEEKEEEKDKGDEEEEGEEKLEEKQKSDAEEDGGTVSQEEEDRKPKAEEDEILNRSPRNRKPRRE",Kd,[11],9.4 nM
same,koff,[11],0.00857 s⁻¹
same,kon,[11],908000 M⁻¹ s⁻¹
